Laboratory results taken from the supplement of paper PMC10567573.

B1: SMOC2 (parent)
chain: DCAGSPQKPLCASDGRTFLSRCEF
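Further: lentivirally expressed fusions sorted by FACS into six bins by GFP to DsRed ratio, PSI derived from sequencing read proportions per bin multiplied by bin number.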

Variants of: B1
Assay: protein stability index of a GFP-peptide fusion (GPS, HEK-293T) (PSI 1-6); higher = more stable
Settings: c terminus: a fixed tail appended
In the case of TCAGSPQKPLCASDGRTFLSRCEF, the protein stability index is reported as 2.59.
For DCAGSPQKPLCASDGRTFLSRCIF, the protein stability index was 1.52.
For DCAGSPQKPLCASDGRTFLSRCVF, the protein stability index was 1.73.
DCAGSPQKPLCASDGRTFLSRCNF showed a protein stability index of 3.31.
DCAGSPQKPLCASDGRTFLSRCPF gave a protein stability index of 2.95.
Variant DCAGSPQKPLCASDGRTFLSRCTF has a protein stability index of 2.19.
DCAGSPQKPLCASDGRTFLSRCQF showed a protein stability index of 3.27.
Work on DCAGSPQKPLCASDGRTFLSRCSF yielded a protein stability index of 2.74.
Work on DCAGSPQKPLCASDGRTFLSRCKF yielded a protein stability index of 3.63.
DCAGSPQKPLCASDGRTFLSRCDF gave a protein stability index of 3.65.
Work on DCAGSPQKPACASDGRTFLSRCEF yielded a protein stability index of 2.92.
DCAGSPQKPPCASDGRTFLSRCEF showed a protein stability index of 2.93.
Variant DCAGSPQKPDCASDGRTFLSRCEF has a protein stability index of 3.29.
DCAGSPQKPQCASDGRTFLSRCEF showed a protein stability index of 4.04.
For DCAGSPQKPCCASDGRTFLSRCEF, the protein stability index was 2.85.
In the case of DCAGSPQKPKCASDGRTFLSRCEF, the protein stability index is reported as 3.1.
In the case of DCAGSPQKPHCASDGRTFLSRCEF, the protein stability index is reported as 3.54.
DCAGSPQKPECASDGRTFLSRCEF showed a protein stability index of 3.84.
Work on DCAGSPQKPFCASDGRTFLSRCEF yielded a protein stability index of 1.82.
Work on DCPGSPQKPLCASDGRTFLSRCEF yielded a protein stability index of 2.37.
Variant DCFGSPQKPLCASDGRTFLSRCEF has a protein stability index of 3.16.
In the case of DCNGSPQKPLCASDGRTFLSRCEF, the protein stability index is reported as 2.66.
Variant DCIGSPQKPLCASDGRTFLSRCEF has a protein stability index of 2.71.
DCDGSPQKPLCASDGRTFLSRCEF gave a protein stability index of 2.95.
Work on DCKGSPQKPLCASDGRTFLSRCEF yielded a protein stability index of 2.89.
DCTGSPQKPLCASDGRTFLSRCEF showed a protein stability index of 2.56.
DCRGSPQKPLCASDGRTFLSRCEF gave a protein stability index of 2.38.
DCVGSPQKPLCASDGRTFLSRCEF showed a protein stability index of 2.66.
Variant DCAGSPQKPLCASDGRTMLSRCEF has a protein stability index of 4.01.
DCAGSPQKPLCASDGRTHLSRCEF showed a protein stability index of 4.32.
Variant DCAGSPQKPLCASDGRTYLSRCEF has a protein stability index of 3.09.
DCAGSPQKPLCASDGRTLLSRCEF showed a protein stability index of 4.12.
With DCAGSPQKPLCASDGRTRLSRCEF the protein stability index was 3.84.
DCAGSPQKPLCASDGRTALSRCEF gave a protein stability index of 3.52.
With DCAGSPQKPLCASDGRTQLSRCEF the protein stability index was 3.89.
In the case of DCAGSPQKPLCASDGRTILSRCEF, the protein stability index is reported as 3.4.
In the case of DCAGKPQKPLCASDGRTFLSRCEF, the protein stability index is reported as 2.72.
Variant DCAGYPQKPLCASDGRTFLSRCEF has a protein stability index of 2.68.
DCAGEPQKPLCASDGRTFLSRCEF showed a protein stability index of 2.56.
Variant DCAGRPQKPLCASDGRTFLSRCEF has a protein stability index of 2.66.
In the case of DCAGCPQKPLCASDGRTFLSRCEF, the protein stability index is reported as 2.24.
With DCAGWPQKPLCASDGRTFLSRCEF the protein stability index was 2.46.
For DCAGMPQKPLCASDGRTFLSRCEF, the protein stability index was 2.52.
For DCAGFPQKPLCASDGRTFLSRCEF, the protein stability index was 1.72.
DCAGSPQKPLCASDGRTFYSRCEF gave a protein stability index of 2.49.
DCAGSPQKPLCASDGRTFGSRCEF showed a protein stability index of 3.07.
Work on DCAGSPQKPLCASDGRTFSSRCEF yielded a protein stability index of 3.06.
DCAGSPQKPLCASDGRTFTSRCEF gave a protein stability index of 2.59.
Work on DCAGSPQKPLCASDGRTFNSRCEF yielded a protein stability index of 4.01.
DCAGSPQKPLCASDGRTFCSRCEF gave a protein stability index of 3.85.
With DCAGSPQKPLCASDGRTFWSRCEF the protein stability index was 2.34.
Work on DCAGSPQKPLCASDGRTFVSRCEF yielded a protein stability index of 1.88.
DCAGSPQKPLCASDGRTFRSRCEF showed a protein stability index of 3.35.
In the case of DCAGSPQKPLCASDGRTFKSRCEF, the protein stability index is reported as 3.53.
In the case of DCAGSPQKDLCASDGRTFLSRCEF, the protein stability index is reported as 2.97.
DCAGSPQKELCASDGRTFLSRCEF showed a protein stability index of 2.72.
For DCAGSPQKILCASDGRTFLSRCEF, the protein stability index was 2.04.
Variant DCAGSPQKPLCASDGRTFLSRCER has a protein stability index of 2.57.
Work on DCAGSPQKPLCASDGRTFLSRCEH yielded a protein stability index of 3.79.
DCAGSPQKPLCASDGRTFLSRCEK showed a protein stability index of 2.97.
DCAGSPQKPLCASDGRTFLSRCES showed a protein stability index of 3.46.
DCAGSPQKPLCASDGRTFLSRCEY gave a protein stability index of 2.67.
Work on DCAGSPAKPLCASDGRTFLSRCEF yielded a protein stability index of 2.51.
In the case of DCAGSPCKPLCASDGRTFLSRCEF, the protein stability index is reported as 2.26.
Work on DCAGSPLKPLCASDGRTFLSRCEF yielded a protein stability index of 2.11.
Work on DCAGSPNKPLCASDGRTFLSRCEF yielded a protein stability index of 1.96.
Variant DCAGSPDKPLCASDGRTFLSRCEF has a protein stability index of 2.94.
With DCAGSPQKPLCASDGRYFLSRCEF the protein stability index was 2.77.
In the case of DCAGSPQKPLCASDGRCFLSRCEF, the protein stability index is reported as 2.04.
Variant DCAGSPQKPLCASDGRWFLSRCEF has a protein stability index of 1.29.
Work on DCAGSPQKPLCASDGRRFLSRCEF yielded a protein stability index of 2.47.
In the case of DCAGSPQKPLCASDGRVFLSRCEF, the protein stability index is reported as 2.22.
Work on DCAGSPQKPLCASDGRIFLSRCEF yielded a protein stability index of 2.33.
Work on DCAGSPQKPLCASDGRLFLSRCEF yielded a protein stability index of 2.11.
For DCAGSPQNPLCASDGRTFLSRCEF, the protein stability index was 2.3.
For DCAGSPQLPLCASDGRTFLSRCEF, the protein stability index was 2.41.
DCAGSPQWPLCASDGRTFLSRCEF gave a protein stability index of 2.46.
Variant DCAGSPQGPLCASDGRTFLSRCEF has a protein stability index of 2.94.
Variant DCAGSPQFPLCASDGRTFLSRCEF has a protein stability index of 3.62.
Work on DCAGSPQQPLCASDGRTFLSRCEF yielded a protein stability index of 2.77.
DCAGSPQSPLCASDGRTFLSRCEF gave a protein stability index of 2.34.
DCAGSPQTPLCASDGRTFLSRCEF gave a protein stability index of 2.69.
With DCAGSPQKPLCWSDGRTFLSRCEF the protein stability index was 1.51.
For DCAGSPQKPLCESDGRTFLSRCEF, the protein stability index was 3.96.
Work on DCAGSPQKPLCTSDGRTFLSRCEF yielded a protein stability index of 3.32.
With DCAGSPQKPLCYSDGRTFLSRCEF the protein stability index was 2.47.
DCAGSPQKPLCGSDGRTFLSRCEF showed a protein stability index of 2.29.
Variant DCAGSPQKPLCVSDGRTFLSRCEF has a protein stability index of 2.97.
For DCAGSPQKPLCKSDGRTFLSRCEF, the protein stability index was 2.59.
For DCAGSPQKPLQASDGRTFLSRCEF, the protein stability index was 2.82.
DCAGSPQKPLRASDGRTFLSRCEF showed a protein stability index of 2.28.
Work on DCAGSPQKPLMASDGRTFLSRCEF yielded a protein stability index of 3.23.
In the case of DCAGSPQKPLYASDGRTFLSRCEF, the protein stability index is reported as 2.58.
For DCAGSPQKPLSASDGRTFLSRCEF, the protein stability index was 3.19.
